Test results published in patent publication US20210087281A1 (AGOMAB THERAPEUTICS, published 2021).

How the values were obtained:
[1] = target: T1, mouse MET-Fc (R&D Systems) (mouse, UniProt P16056 25-929, limits assumed); test: competition ELISA, mMET-Fc in solid phase, competitor 0.3 nM biotinylated mHGF
T1 construct: bought chimeric protein; also called mMET; not shown: Fc part
Experimental: (§1) To investigate along this line, we tested the competition between mAbs and HGF by ELISA. Recombinant human and mouse HGF (R&D Systems) were biotinylated at the N-terminus using NHS-LC-biotin (Thermo Scientific). MET-Fc protein, either human or mouse (R&D Systems), was immobilized in solid phase and then exposed to 0.3 nM biotinylated HGF, either human or mouse, in the presence of increasing concentrations of antibodies (0-120 nM).
(§2) A MET-Fc chimeric protein (either human or mouse) was immobilized in solid phase and exposed to a fixed concentration of biotinylated HGF (either human or mouse), in the presence of increasing concentrations of antibodies. […] Antibody-HGF competition is expressed as IC₅₀ (the concentration that achieves 50% competition) and IMAX (the maximum % competition reached at saturation).

[2] = target: T2, native mouse MET on living cells (mouse, UniProt P16056 25-1379); test: flow cytometry, MLP29 cells
T2 construct: whole, on cells; also called Mouse cells (MLP29); mouse epithelial cells expressing MET
Experimental: (§3) We also analysed whether chimeric anti-MET antibodies bound to native human and mouse MET in living cells. […] Antibody binding to cells was analysed by flow cytometry using phycoerythrin-conjugated anti-human IgG1 antibodies (eBioscience) and a CyAn ADP analyser (Beckman Coulter). As a positive control for human MET binding, we used a commercial mouse anti-human MET antibody (R&D Systems) and phycoerythrin-conjugated anti-mouse IgG1 antibodies (eBioscience).
(§4) As a positive control for mouse MET binding we used a commercial goat anti-mouse MET antibody (R&D Systems) and phycoerythrin-conjugated anti-goat IgG1 antibodies (eBioscience). […] Consistent with the data obtained in ELISA, maximal binding (EMAX) varied depending on antibody, but was similar in human and mouse cells.

[3] = target: human MET ECD mutant E (mutations 2, 3, 4) (human) (UniProt P08581); test: ELISA, MET ECD in solid phase, mAb 0-50 nM
[4] = target: human MET ECD mutant H (mutations 2, 4) (human) (UniProt P08581); test: ELISA, MET ECD in solid phase, mAb 0-50 nM
[5] = target: human MET ECD mutant A (mutations 1, 2, 3) (human) (UniProt P08581); test: ELISA, MET ECD in solid phase, mAb 0-50 nM
[6] = target: human MET ECD mutant D (mutations 1, 2) (human) (UniProt P08581); test: ELISA, MET ECD in solid phase, mAb 0-50 nM
[7] = target: T2, native mouse MET on living cells; test: cell-based or functional assay
[8] = target: T3, native human MET on living cells (human, UniProt P08581 25-1390); test: cell-based or functional assay
[9] = target: T4, mouse MET ECD (mouse, UniProt P16056 25-931); test: ELISA, MET ECD in solid phase, mAb 0-20 nM
T4 construct: range 1-931; recombinant ECD made by the applicants; the stated range begins at residue 1; also called mMET; mMET ECD
Experimental: (§5) Production (by transient transfection of mammalian cells) and purification (by protein A affinity chromatography) of the resulting chimeric llama-human IgG1 molecules was outsourced to U-protein Express. Binding of chimeric mAbs to MET was determined by ELISA using hMET or mMET ECD in solid phase and increasing concentrations of antibodies (0-20 nM) in solution. […] Binding capacity (EMAX) varied from antibody to antibody, possibly due to partial epitope exposure in the immobilized antigen, but was similar in the human and mouse setting.

[10] = target: T5, human MET ECD (human, UniProt P08581 25-932); test: ELISA, MET ECD in solid phase, mAb 0-20 nM
T5 construct: range 1-932; recombinant ECD made by the applicants; the stated range begins at residue 1, so it includes the signal peptide of the entry; also called hMET; hMET ECD
Experimental: as §5

[11] = target: T5, human MET ECD; test: ELISA, MET ECD in solid phase, mAb 0-50 nM
Experimental: Using human MET as a template, we mutagenized each of these residues in different permutations, generating a series of MET mutants that are fully human except for specific residues, which are llama. Next, we tested the affinity of selected SEMA-binding mAbs (71D6, 71C3, 71D4, 71A3, 71G2) and PSI-binding mAbs (76H10 and 71G3) for these MET mutants by ELISA. To this end, the various MET proteins were immobilized in solid phase (100 ng/well in a 96-well plate) and then exposed to increasing concentrations of antibodies (0-50 nM) solution. […] Wild-type human MET was used as positive control.
TABLE 18 The epitopes of MET responsible for agonistic antibody binding represent residues conserved among H. sapiens, M. musculus, R. norvegicus, M. fascicularis but not among the same species and L. glama. The relevance of residues conserved among human, mouse, rat, cynomolgus monkey but not llama MET for binding to agonistic mAbs was tested by ELISA. Wild-type (WT) or mutant (MT) human MET ECD was immobilized in solid phase and exposed to increasing concentrations of mAbs in solution. […] All binding values were normalized to the WT protein and are expressed as % binding (EMAX) compared to WT MET.

[12] = target: T2, native mouse MET on living cells; test: cell-based or functional assay; remark: listed apart in the source
[13] = target: T3, native human MET on living cells; test: cell-based or functional assay; remark: listed apart in the source
[14] = target: T2, native mouse MET on living cells; test: cell-based or functional assay; remark: listed apart in the source
[15] = target: T3, native human MET on living cells; test: cell-based or functional assay; remark: listed apart in the source
[16] = target: T6, human MET-Fc (R&D Systems) (human, UniProt P08581 25-932); test: competition ELISA, hMET-Fc in solid phase, competitor 0.3 nM biotinylated hHGF
T6 construct: extracellular domain; bought chimeric protein; also called hMET; not shown: Fc portion of human IgG1
Experimental: as §1, §2

[17] = target: T2, native mouse MET on living cells; test: cell-based or functional assay; remark: listed apart in the source
[18] = target: T3, native human MET on living cells; test: cell-based or functional assay; remark: listed apart in the source
[19] = target: T3, native human MET on living cells; test: flow cytometry, A549 cells
Experimental: as §3, §4

T3 sequence (P08581 25-1390): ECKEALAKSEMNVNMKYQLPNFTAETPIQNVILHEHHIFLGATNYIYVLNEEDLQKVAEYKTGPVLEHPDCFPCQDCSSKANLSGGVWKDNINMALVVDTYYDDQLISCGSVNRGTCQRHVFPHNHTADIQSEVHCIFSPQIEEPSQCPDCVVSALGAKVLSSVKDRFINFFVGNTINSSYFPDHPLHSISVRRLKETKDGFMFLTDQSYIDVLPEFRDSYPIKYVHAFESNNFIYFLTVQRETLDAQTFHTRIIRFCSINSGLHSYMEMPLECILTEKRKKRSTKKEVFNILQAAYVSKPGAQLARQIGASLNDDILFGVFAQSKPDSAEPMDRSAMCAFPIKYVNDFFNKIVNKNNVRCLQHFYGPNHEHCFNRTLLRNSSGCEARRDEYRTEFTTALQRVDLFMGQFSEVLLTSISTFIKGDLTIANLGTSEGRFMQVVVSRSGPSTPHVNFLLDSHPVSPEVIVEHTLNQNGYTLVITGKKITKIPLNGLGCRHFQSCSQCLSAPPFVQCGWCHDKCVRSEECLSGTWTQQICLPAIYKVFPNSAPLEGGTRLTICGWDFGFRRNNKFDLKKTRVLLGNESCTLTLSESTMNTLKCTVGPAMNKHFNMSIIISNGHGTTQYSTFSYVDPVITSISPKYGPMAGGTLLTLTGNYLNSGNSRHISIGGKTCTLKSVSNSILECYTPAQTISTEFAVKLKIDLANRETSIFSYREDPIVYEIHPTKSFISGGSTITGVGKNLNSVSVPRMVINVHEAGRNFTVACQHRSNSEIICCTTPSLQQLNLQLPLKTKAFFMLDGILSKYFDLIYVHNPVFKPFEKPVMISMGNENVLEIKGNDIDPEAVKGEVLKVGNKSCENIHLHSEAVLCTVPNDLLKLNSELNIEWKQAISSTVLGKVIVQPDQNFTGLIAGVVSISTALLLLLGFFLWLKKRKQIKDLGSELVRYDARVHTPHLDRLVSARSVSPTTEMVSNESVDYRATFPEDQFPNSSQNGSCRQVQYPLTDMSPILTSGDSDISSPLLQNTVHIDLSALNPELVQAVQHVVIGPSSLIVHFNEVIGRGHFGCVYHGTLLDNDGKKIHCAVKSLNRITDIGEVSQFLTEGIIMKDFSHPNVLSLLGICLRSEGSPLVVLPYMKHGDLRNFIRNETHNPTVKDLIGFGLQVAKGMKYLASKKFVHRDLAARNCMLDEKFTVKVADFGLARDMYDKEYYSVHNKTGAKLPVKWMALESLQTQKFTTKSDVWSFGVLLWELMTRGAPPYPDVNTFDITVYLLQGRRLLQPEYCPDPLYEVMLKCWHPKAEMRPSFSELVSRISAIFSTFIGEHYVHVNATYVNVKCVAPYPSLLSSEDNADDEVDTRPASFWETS
T5 sequence (P08581 25-932 limits assumed, form in doubt): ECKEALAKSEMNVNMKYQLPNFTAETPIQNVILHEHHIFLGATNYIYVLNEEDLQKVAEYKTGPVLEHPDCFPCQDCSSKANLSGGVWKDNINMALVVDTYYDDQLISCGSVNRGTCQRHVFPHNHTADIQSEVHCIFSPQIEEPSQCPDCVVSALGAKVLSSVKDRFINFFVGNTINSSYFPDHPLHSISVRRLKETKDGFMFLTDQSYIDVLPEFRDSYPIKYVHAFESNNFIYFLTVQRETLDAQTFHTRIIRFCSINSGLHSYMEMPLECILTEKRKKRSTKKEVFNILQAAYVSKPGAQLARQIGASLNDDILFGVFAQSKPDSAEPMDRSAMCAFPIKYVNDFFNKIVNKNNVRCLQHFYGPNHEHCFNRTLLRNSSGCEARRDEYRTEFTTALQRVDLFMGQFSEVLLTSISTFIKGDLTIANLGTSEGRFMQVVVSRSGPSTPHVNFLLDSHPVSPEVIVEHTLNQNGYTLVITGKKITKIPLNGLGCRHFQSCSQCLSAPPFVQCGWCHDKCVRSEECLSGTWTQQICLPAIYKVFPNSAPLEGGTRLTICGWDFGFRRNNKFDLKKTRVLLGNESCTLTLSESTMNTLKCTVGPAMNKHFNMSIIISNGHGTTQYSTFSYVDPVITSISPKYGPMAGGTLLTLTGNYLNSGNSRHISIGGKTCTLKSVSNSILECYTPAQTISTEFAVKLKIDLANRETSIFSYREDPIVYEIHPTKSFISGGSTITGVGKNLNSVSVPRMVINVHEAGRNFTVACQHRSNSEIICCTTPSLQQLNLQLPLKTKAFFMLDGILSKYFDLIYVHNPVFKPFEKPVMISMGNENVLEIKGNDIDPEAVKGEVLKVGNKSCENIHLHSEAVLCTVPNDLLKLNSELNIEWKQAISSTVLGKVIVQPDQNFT
T6 sequence (P08581 25-932): as the sequence (P08581 25-932 limits assumed, form in doubt) above

B1: 71C3 chimeric llama-human IgG1 mAb (antibody, V domains shown)
VH: QLQLVESGGGLVQPGGSLRLSCAASGFTFSSHAMSWVRQAPGKGLEWVSAINSGGGSTSYADSVKGRFTISRDNAKNTLYLQMNSLKPEDTAVYYCAKELRFDLARYTDYEAWDYWGQGTQVTVSS
VL: SYELTQPSALSVTLGQTAKITCQGGSLGSSYAHWYQQKPGQAPVLVIYDDDSRPSGIPERFSGSSSGGTATLTISGAQAEDEGDYYCQSADSSGNAAVFGGGTHLTVL
notes: llama VH on human IgG1 CH1-CH2-CH3, llama VL on human lambda CL
- IC50 [1]: 1.56 nM
- IMAX [1]: 89.2%
- EC50 [2]: 0.585 nM
- EMAX [2]: 115 % relative to control
- % binding (EMAX) compared to WT MET [3]: 59.6 % WT MET ECD
- % binding (EMAX) compared to WT MET [4]: 61.6 % WT MET ECD
- % binding (EMAX) compared to WT MET [5]: 99.8 % WT MET ECD
- % binding (EMAX) compared to WT MET [6]: 102 % WT MET ECD
- phospho-MET ELISA EC50, MLP29 cells [7]: 0.33 nM
- phospho-MET ELISA EMAX (% HGF activity), MLP29 cells [7]: 98.8%
- phospho-MET ELISA EC50, A549 cells [8]: 0.35 nM
- phospho-MET ELISA EMAX (% HGF activity), A549 cells [8]: 86.2%
- EC50 [9]: 0.293 nM
- EMAX (OD450) [9]: 2.24 AU
- EC50 [10]: 0.203 nM
- EMAX (OD450) [10]: 2.46 AU
- % binding (EMAX) compared to WT MET [11]: 100 % WT MET ECD
- branches per spheroid, MLP29 cells, 0.5 nM [12]: 11.7 branches
- branches per spheroid, MLP29 cells, 2.5 nM [12]: 15.7 branches
- branches per spheroid, MLP29 cells, 12.5 nM [12]: 24.7 branches
- branches per spheroid, LOC cells, 0.5 nM [13]: 8.7 branches
- branches per spheroid, LOC cells, 2.5 nM [13]: 12.7 branches
- branches per spheroid, LOC cells, 12.5 nM [13]: 15.7 branches
- scatter score 0-4, MLP29, 0.001 nM [14]: 0 score
- scatter score 0-4, MLP29, 0.004 nM [14]: 0 score
- scatter score 0-4, MLP29, 0.012 nM [14]: 0 score
- scatter score 0-4, MLP29, 0.037 nM [14]: 0 score
- scatter score 0-4, MLP29, 0.111 nM [14]: 1 score
- scatter score 0-4, MLP29, 0.333 nM [14]: 2 score
- scatter score 0-4, MLP29, 1.000 nM [14]: 3 score
- scatter score 0-4, MLP29, 3.000 nM [14]: 4 score
- scatter score 0-4, MLP29, 9.000 nM [14]: 4 score
- scatter score 0-4, HPAF-II, 0.001 nM [15]: 0 score
- scatter score 0-4, HPAF-II, 0.004 nM [15]: 0 score
- scatter score 0-4, HPAF-II, 0.012 nM [15]: 0 score
- scatter score 0-4, HPAF-II, 0.037 nM [15]: 0 score
- scatter score 0-4, HPAF-II, 0.111 nM [15]: 1 score
- scatter score 0-4, HPAF-II, 0.333 nM [15]: 2 score
- scatter score 0-4, HPAF-II, 1.000 nM [15]: 3 score
- scatter score 0-4, HPAF-II, 3.000 nM [15]: 4 score
- scatter score 0-4, HPAF-II, 9.000 nM [15]: 4 score
- IC50 [16]: 1.42 nM
- IMAX [16]: 93.6%
- protection from staurosporine, viability EC50, MLP29 cells [17]: 31 nM
- protection from staurosporine, viability EMAX, MLP29 cells [17]: 51.3%
- protection from staurosporine, viability EC50, MCF10A cells [18]: 31.9 nM
- protection from staurosporine, viability EMAX, MCF10A cells [18]: 50.2%
- EC50 [19]: 0.572 nM
- EMAX [19]: 106 % relative to control
